According to PMC3469484:
Numbering of substitutions follows the chain as printed.

Experiments:
[1] = tested on: T1, OhrR C126S C126S (Chromobacterium violaceum ATCC 12472), ORF:deafe3b3; experiment: EMSA; settings: EMSA: 20 mM Tris-HCl pH 7.4, 50 mM KCl, 1 mM DTT, 1 mM EDTA, 5% glycerol, 0.05 mg/ml BSA, 0.1 mg/ml salmon sperm DNA, 25 C, 25 min; footprinting the same …
T1 sequence: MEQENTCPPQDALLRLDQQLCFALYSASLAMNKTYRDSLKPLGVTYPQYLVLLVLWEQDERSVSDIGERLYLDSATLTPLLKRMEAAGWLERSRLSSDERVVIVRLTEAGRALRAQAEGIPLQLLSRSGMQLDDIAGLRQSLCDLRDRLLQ

[2] = tested on: T2, OhrR WT (Chromobacterium violaceum ATCC 12472), ORF:deafe3b3; experiment: EMSA; settings: EMSA: 20 mM Tris-HCl pH 7.4, 50 mM KCl, 1 mM DTT, 1 mM EDTA, 5% glycerol, 0.05 mg/ml BSA, 0.1 mg/ml salmon sperm DNA, 25 C, 25 min; footprinting the same …
T2 sequence: T1 sequence with S126C

[3] = tested on: T2, OhrR WT (Chromobacterium violaceum ATCC 12472), ORF:deafe3b3; experiment: DNase I footprinting; settings: EMSA: 20 mM Tris-HCl pH 7.4, 50 mM KCl, 1 mM DTT, 1 mM EDTA, 5% glycerol, 0.05 mg/ml BSA, 0.1 mg/ml salmon sperm DNA, 25 C, 25 min; footprinting the same …
[4] = molecular target: Chromobacterium violaceum OhrR (CV0210), wild type, N-terminal histidine tag (Chromobacterium violaceum); experiment: cross-linking; intermolecular disulfide bond formed on oxidation, read by 14% nonreducing SDS-PAGE: DTT-reduced, desalted OhrR (10 µM) treated with 100 µM cumene hydroperoxide for 30 min, then alkylated with 100 mM NEM for 2 h; Coomassie stain

Row | Substance | binding [1] | binding [2] | binding [3] | stoichiometry N [4]
1 | TGGATCCCTCGCTGGCCGATCTGGGACGCGGCCCGGTGCGGGCGGCCGCCTGATCGCGGTTTCGCGCCCGCTTGGCGCGGGCGCGTCGCGGTTCCGCATAATAATAAATTGCTTGCAATTAAATAGTGCACTATTTATTATGCGGCCATGGAACAAGAAAACACGTGCCCGCCGCAGGACGCGCTTTTGCGGCTGGACCAGCAACTCTGCTTCGCGCTGTATTCCGCCAAGCTTA (double strand) [ohrR promoter] | binds | binds | binds | 
2 | Chromobacterium violaceum OhrR (CV0210), wild type, N-terminal histidine tag (natural protein) |  |  |  | 2
3 | TAAGCTTGCGGTGGCTTCGGCGGTATACAGTACTTTTTGCAGAGGGTTCATCTGGCTCTCCTTGGCTTGACGCCGTTGCGATTAAAATAATGAGCTATTTAATAGTGCACTATCTAACTATCAAAACCCTGACGGGTTCATTGCAGCAGCCGGTCGCGCAGATCGCACAGCGACTGCCTCAATCCGGCGATATCGTCCAGTTGCATTCCGCTCCGGCAGGATCCA (double strand) [ohrA promoter] | binds | binds | binds | 
4 | TGAATTCAATCCGTGACGCCGCACAGGGCGCCGGAATGGAACATTCGCGCGCGAACCGGAAAGCGACTCAGCAACGCATCCAGCCTGTCGACACATGCCTCAGCCACATCAGGACTCCTTATCAAATTTTCAGGATCCTATGCAGCTTATCGTCATTTTGCTTGGCATAAAGTTTCTCCAGCCAAACGGCTTAAGCCCACCAACCATCAGGAGCACATCATGTCGATTGAAACCATTCTGTACCGGACCCAAGCCACCGTAAGCTTA (double strand) [ohrB promoter] |  | no binding |  | 
